Data set [1] can be described thus: Transmission electron microscopy (TEM) of size and shape of CPP particles. Type of data set: physicochemical. As to the method: (§1) The diameter and zeta potential of CPP nanoparticles may be measured using dynamic light scattering (DLS) or nanoparticle tracking analysis system (NTA) (1), (4) (using 0.01 mM peptide). The morphology of NP is analysed by transmission electron microscopy (TEM) (11), scanning electron microscopy (SEM) or atomic force microscopy (AFM) using 0.1 or 0.01 mM peptide solution.
Analysis of the size and shape of CPP nanoparticles and their complexes with cargo nucleic acids by transmission electron microscopy (TEM) confirmed data from DLS analysis. Depending on the solvent used for preparation of 1 mM peptide solutions, the particles of CPP were largely different.

Data set [2] can be described thus: Dynamic light scattering (DLS) size and polydispersity of CPP particles after dilution in water. The note with it: PF14 in isopropanol/DMSO/trimethylene carbonate (90/9/1), further 10-fold dilution. Type of data set: physicochemical. As to the method: as §1
The physical characteristics (diameter and zeta-potential) of the peptide micelles/aggregates/nanoparticles were analysed by dynamic light scattering (DLS) using a ZetaView (Particle Metrix, Germany) or ZetasizerNano ZS apparatus (Malvern Instruments, UK) at 10 μM concentration in water.
DLS analysis of the size of CPP particles forming after 100-fold dilution of 1 mM peptide solution in Milli-Q water or organic solvents (ambient temperature) is provided in Table 1.
The optimal size of nanoparticles to be used for drug delivery in vivo is in range of 100 nm (between 10 and 200 nm), and the lack of large aggregates is highly essential. In order to analyse the size of CPP clusters that form in water, DLS traces were measured by Malvern Zetasizer Nano ZS. Four consecutive measurements were performed with each sample for the calculation of the size and polydispersity of the forming CPP particles.

Data set [3] has as its system human primary keratinocytes. The experiment in a line: Transfection with EGFP-coding mRNA/CPP complexes. Type of data set: cell-based. The note with it: CPP solutions in mixture of organic solvents; 200 ng mRNA, 520 nM CPP, 20 h; FIG. 3. As to the method: The complexes of 200 ng of mRNA with 520 nM CPP were added into culture medium above cells per well of 24-well plate for 20 h. For the delivery and expression of EGFP, mRNA complexes were assembled with NF71 (dissolved at 1 mM concentration in ethanol/DMSO/trimethylene carbonate 78/20/2) or PF14 (PF14o—dissolved at 1 mM concentration in ethanol/DMSO, or in water—PF14w).
The CPP nanoparticles with mRNA are formed in a similar manner with pDNA. mRNA at concentration 10 μg/ml is complexed with 10 μM PF14 CPP in Milli-Qwater. If required, Ca or Mg ions are incorporated in CPP-mRNA nanoparticles as described above. Unlike other particle solutions described above, CPP-mRNA 10× solutions are directly added into growth medium where cells have been incubated. The preferred N/P ratio (“charge ratio”) of CPP to mRNA is 2. Depending on the charge of used CPP, type of cells and experiment, N/P ratio can be varied in the range 1.5 to 4. For delivery of mRNA into human primary cells, preferentially Mg ions are incorporated in CPP nanoparticles.

Data set [4] concerns HeLa pLuc705 cells. The experiment in a line: Splicing correction luciferase assay (Kole's assay). The conditions noted are these: hPep3 dissolved in the mixture of dimethyl sulfoxide; 100 nM SCO-705, 500 nM peptide, 24 h; FIG. 5.

This note sets out measurements from patent US20240139115A1, “Novel Method for Preparation of Nanoparticles Comprising Cell Penetrating Peptides” (CELLPEPT SWEDEN AB, priority 2021, published 2024).

Where no end group is shown, it is not given here. [ ]: non-standard residue; d: D form. The star is where a group is joined. Stearoyl = CCCCCCCCCCCCCCCCCC(=O)*; R8 = C=CCCCCCC[C@@](C)(N)C(=O)O; Orn = NCCC[C@H](N)C(=O)O

With “PepFect 14 (Stearoyl-AGYLLGKLL[Orn][Orn]LAAAAL[Orn][Orn]LL-NH2) [PF14, Stearyl (C18)-…OOLAAAALOOLL, C-terminal amide]”, the “aggregates present in specimen” value in data set [1] (PF14 in isopropanol/DMSO/trimethylene carbonate (90/9/1) at 1 mM, diluted in water to 0.1 mM, TEM) is given as “No aggregates”. The “diameter of spherical nanoparticles” value in data set [1] (PF14 in isopropanol/DMSO/trimethylene carbonate (90/9/1) at 1 mM, quick dilution in water to 0.1 mM, TEM) is listed as 40-60 nm. The “larger PF14 particles observed in TEM images” value in data set [1] (PF14 in isopropanol/DMSO/trimethylene carbonate (90/9/1), 0.1 mM in water) is listed as 100-150 nm. For the same substance, the “average diameter of uniform NP” value in data set [2] was roughly 100 nm. Moreover, in data set [3], the “transfection of EGFP mRNA and expression of EGFP” value is given as “enable transfection”.
“hPep3 (L[R8][dK]LAKA[R8]AKLLKA[R8]AKAL; staple (positions not given here); also: three R8 olefin residues, staple pairing not given here)”: the “efficiency of nanoparticles with SCO cargo compared with water-dissolved hPep3” value in data set [4] is “same efficiency”.
Regarding “NickFect 71 (Stearoyl-HHYHHGXILLKALKALAKAIL-NH2; not fully specified (residue 7); printed as HHYHHGObILLKALKALAKAIL; also: Gly6 joined to the Orn7 side-chain delta-amino instead of its alpha-amino) [NF71]”, the “transfection of EGFP mRNA and expression of EGFP” value in data set [3] is recorded as “enable transfection”.
